Consider nine substances from PMC9369017.

This experiment concerns the target SARS-CoV-2 spike protein on Ramos-S cells (SARS-CoV-2) (UniProt P0DTC2). Nature of the experiment: flow cytometry on cells.

“EflACE2-Fc-E430G (from UniProt Q9BYF1 19-740) (Fc fusion)” yielded a median fluorescence intensity of 21000. The figure for “EflACE2-Fc-H429F (from UniProt Q9BYF1 19-740) (Fc fusion)” is 20500; for “EflACE2-Fc-H429Y (from UniProt Q9BYF1 19-740) (Fc fusion)” it is 15100; for “flACE2-Fc-E430G (from UniProt Q9BYF1 19-740) (Fc fusion)” it is 17300. As to “flACE2-Fc-H429F (from UniProt Q9BYF1 19-740) (Fc fusion)”, the median fluorescence intensity is 16900.

“flACE2-Fc-H429Y (from UniProt Q9BYF1 19-740) (Fc fusion)” gave a median fluorescence intensity of 12500.

The substance “trACE2-Fc-E430G (from UniProt Q9BYF1 19-615) (Fc fusion)” had a median fluorescence intensity of 16700.

As for “trACE2-Fc-H429F (from UniProt Q9BYF1 19-615) (Fc fusion)”, the median fluorescence intensity worked out at 16300.

Substance “trACE2-Fc-H429Y (from UniProt Q9BYF1 19-615) (Fc fusion)” gave a median fluorescence intensity of 11600.
